Data published in US20230220067A1 (Johns Hopkins, published 2023).

Tests used:
[1] = target: T1, potassium two pore domain channel subfamily K member 9 (KCNK9) (human, UniProt Q9NPC2 1-374); experiment: flow cytometry on induced KCNK9-expressing HEK293 cells, anti-human Fc FITC secondary
T1 construct: whole, on cells; also called human KCNK9
Source text: An anti-KCNK9 mouse monoclonal antibody having a VH amino acid sequence of SEQ ID NO: 1 and a VL amino acid sequence of SEQ ID NO: 2 (mu-mAb) was humanized using a method based on Queen et al., Proc. Natl. Acad. Sci. USA, 86: 10029-10033 (1989). The hybridoma antibody was sequenced after amplifying the antibody variable regions by RT-PCR with degenerate primers. The variable regions were fused with the human antibody IgG1 constant regions to produce a chimeric antibody. Antigen binding of the chimeric antibody was confirmed by staining of the KCNK9-expressing cells. HEK293 cells were stably transfected with KCNK9 expression vector under the tetracycline inducible promoter. After induction, the cells were incubated with various concentrations of chimeric KCNK9 antibody for 30 minutes, followed by secondary anti-human Fc FITC conjugate. Chimeric antibody binding was analyzed by flow cytometry.

human FcγIII = human FcγIII (human, UniProt P08637 17-254); experiment: cell-based or functional assay
Chain of human FcγIII (P08637 17-254): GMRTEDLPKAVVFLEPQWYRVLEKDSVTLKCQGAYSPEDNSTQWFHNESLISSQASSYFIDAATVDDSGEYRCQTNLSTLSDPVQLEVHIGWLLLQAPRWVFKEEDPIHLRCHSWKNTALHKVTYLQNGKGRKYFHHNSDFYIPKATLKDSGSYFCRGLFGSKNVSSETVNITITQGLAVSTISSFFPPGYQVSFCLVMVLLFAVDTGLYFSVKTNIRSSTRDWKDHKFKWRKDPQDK

[2] = target: T1, potassium two pore domain channel …; experiment: flow cytometry of KCNK9-expressing cells, anti-human Fc PE secondary
Source text: After antibody sequence analysis and structure modeling, the murine antibody CDRs (SEQ ID NOs: 3-8) were grafted into human antibody VK3-11 and VH1-3 frameworks. Critical murine antibody framework residues that support CDR conformation were identified and introduced into the human frameworks. Five variants of the humanized VH sequences (VH1-5; SEQ ID NOs: 9-13) and three variants of the humanized VL variants (VL1-3; SEQ ID NOs: 14-16) were designed and synthesized. All of the variable regions were cloned into a human IgG1 expression vector. The VHs and VLs were cross-matched to generate 15 humanized KCNK9 antibody clones. All humanized antibodies were produced by transient transfection in 293 cells and purified by Protein A chromatography. Antigen binding of the humanized KCNK9 antibodies was characterized by immunofluorescence staining of KCNK9-expressing cells.

T1 sequence (Q9NPC2 whole entry, the tested form may be a part): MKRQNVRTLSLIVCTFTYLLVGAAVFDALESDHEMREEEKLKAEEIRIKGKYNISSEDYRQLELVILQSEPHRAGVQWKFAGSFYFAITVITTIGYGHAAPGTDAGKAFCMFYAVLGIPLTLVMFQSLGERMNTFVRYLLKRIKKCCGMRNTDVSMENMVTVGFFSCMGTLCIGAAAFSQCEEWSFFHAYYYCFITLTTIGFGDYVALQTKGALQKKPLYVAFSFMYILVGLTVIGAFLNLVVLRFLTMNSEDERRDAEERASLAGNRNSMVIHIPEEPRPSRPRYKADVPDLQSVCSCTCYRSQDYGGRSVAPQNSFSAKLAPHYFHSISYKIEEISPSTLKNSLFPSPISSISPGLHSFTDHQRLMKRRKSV

Row | Binder | ADCC activity (lysis of KCNK9-expressing HEK293 target cells by NK92-3F9 effector cells) (human FcγIII) | binding result [2] | other results
1 | chimeric KCNK9 antibody (antibody, V domains shown, Variable regions of the mouse anti-KCNK9 monoclonal antibody (mu-mAb) fused with human antibody IgG1 constant regions; also called chimeric antibody; chimeric KCNK9 monoclonal antibody) VH: EVQLQQSGPELVKPGASVKTSCKASGYSFTGYYMYWVKQSPEKSLEWIGEINPSSGGTTYNQKFKAKATLTVDKSSSTAYMQLKSLTFEDSAVYYCARSGLRRRFYAMDYWGQGTSVTVSS VL: DIVLTQSPASLAVSLGQRATVSCRASESVDSFGTTFMHWYQQKPGQPPKLLIYRASNLESGIPARFSGSGSRTDFTLTINPVEADDVATYYCQQSNKDPPTFGGGSKLEIK | – | – | EC50 [1]: ~0.3 µg/mL
2 | afucosyl humanized KCNK9 monoclonal antibody AF-H4L3 (antibody, V domains shown, afucosyl N-glycan on the Fc region (made in fut8-/- CHO cells)) VH: QVQLVQSGAEVKKPGASVKVSCKASGYSFTGYYMYWVRQAPGQRLEWMGEINPSSGGTTYNQKFKARVTLTVDKSASTAYMELSSLRSEDTAVYYCARSGLRRRFYAMDYWGQGTLVTVSS VL: EIVLTQSPATLSLSPGERATLSCRASESVDSFGTTFMHWYQQKPGQPPRLLIYRASNLESGIPARFSGSGSRTDFTLTISSLEPEDFATYYCQQSNKDPPTFGGGTKVEIK | 100 fold | – | –
3 | afucosyl humanized KCNK9 monoclonal antibody AF-H5L2 (antibody, V domains shown, afucosyl N-glycan on the Fc region (made in fut8-/- CHO cells)) VH: QVQLVQSGAEVKKPGASVKVSCKASGYSFTGYYMYWVRQAPGQRLEWIGEINPSSGGTTYNQKFKARATLTVDKSASTAYMELSSLRSEDTAVYYCARSGLRRRFYAMDYWGQGTLVTVSS VL: EIVLTQSPATLSLSPGERATLSCRASESVDSFGTTFMHWYQQKPGQAPRLLIYRASNLESGIPARFSGSGSRTDFTLTISSLEPEDFAVYYCQQSNKDPPTFGGGTKVEIK | 100 fold | – | –
4 | humanized KCNK9 antibody clone H4L3 (antibody, V domains shown, Variable regions cloned into a human IgG1 expression vector; produced in 293 cells) VH: QVQLVQSGAEVKKPGASVKVSCKASGYSFTGYYMYWVRQAPGQRLEWMGEINPSSGGTTYNQKFKARVTLTVDKSASTAYMELSSLRSEDTAVYYCARSGLRRRFYAMDYWGQGTLVTVSS VL: EIVLTQSPATLSLSPGERATLSCRASESVDSFGTTFMHWYQQKPGQPPRLLIYRASNLESGIPARFSGSGSRTDFTLTISSLEPEDFATYYCQQSNKDPPTFGGGTKVEIK | – | binds | –
5 | humanized KCNK9 antibody clone H5L2 (antibody, V domains shown, Variable regions cloned into a human IgG1 expression vector; produced in 293 cells) VH: QVQLVQSGAEVKKPGASVKVSCKASGYSFTGYYMYWVRQAPGQRLEWIGEINPSSGGTTYNQKFKARATLTVDKSASTAYMELSSLRSEDTAVYYCARSGLRRRFYAMDYWGQGTLVTVSS VL: EIVLTQSPATLSLSPGERATLSCRASESVDSFGTTFMHWYQQKPGQAPRLLIYRASNLESGIPARFSGSGSRTDFTLTISSLEPEDFAVYYCQQSNKDPPTFGGGTKVEIK | – | binds | –
